Legend:
[1] = target: anti-A2M antibody (MAB) labeled with a donor fluorophore; assay: TR-FRET competition against acceptor-labeled A2M; A2M calibrator 200 ug/mL; mean of 4 replicates (FIG. 2G)
[2] = target: anti-A2M antibody (MAB) labeled with a donor fluorophore; assay: TR-FRET competition against acceptor-labeled A2M; A2M calibrator 500 ug/mL; mean of 4 replicates (FIG. 2G)
[3] = target: anti-A2M antibody (MAB) labeled with a donor fluorophore; assay: TR-FRET competition against acceptor-labeled A2M; A2M calibrator 1000 ug/mL; mean of 4 replicates (FIG. 2G)
[4] = target: anti-A2M antibody (MAB) labeled with a donor fluorophore; assay: TR-FRET competition against acceptor-labeled A2M; A2M calibrator 2000 ug/mL; mean of 4 replicates (FIG. 2G)
[5] = target: anti-A2M antibody (MAB) labeled with a donor fluorophore; assay: TR-FRET competition against acceptor-labeled A2M; A2M calibrator 4000 ug/mL; mean of 4 replicates (FIG. 2G)
[6] = target: anti-A2M antibody (MAB) labeled with a donor fluorophore; assay: TR-FRET competition against acceptor-labeled A2M; A2M calibrator 0 ug/mL, reference; mean of 4 replicates (FIG. 2G)
[7] = target: anti-A2M antibody (MAB) labeled with a donor fluorophore; assay: TR-FRET competition against acceptor-labeled A2M in whole blood, singleplex calibrators, 5 min; A2M 200 ug/mL (FIG. 2I)
[8] = target: anti-A2M antibody (MAB) labeled with a donor fluorophore; assay: TR-FRET competition against acceptor-labeled A2M in whole blood, singleplex calibrators, 5 min; A2M 500 ug/mL (FIG. 2I)
[9] = target: anti-A2M antibody (MAB) labeled with a donor fluorophore; assay: TR-FRET competition against acceptor-labeled A2M in whole blood, singleplex calibrators, 30 min; A2M 200 ug/mL (FIG. 2I)
[10] = target: anti-A2M antibody (MAB) labeled with a donor fluorophore; assay: TR-FRET competition against acceptor-labeled A2M in whole blood, singleplex calibrators, 30 min; A2M 500 ug/mL (FIG. 2I)
[11] = target: anti-A2M antibody (MAB) labeled with a donor fluorophore; assay: TR-FRET competition against acceptor-labeled A2M in whole blood, singleplex calibrators, 5 min; A2M 1000 ug/mL (FIG. 2I)
[12] = target: anti-A2M antibody (MAB) labeled with a donor fluorophore; assay: TR-FRET competition against acceptor-labeled A2M in whole blood, singleplex calibrators, 5 min; A2M 2000 ug/mL (FIG. 2I)
[13] = target: anti-A2M antibody (MAB) labeled with a donor fluorophore; assay: TR-FRET competition against acceptor-labeled A2M in whole blood, singleplex calibrators, 5 min; A2M 4000 ug/mL (FIG. 2I)
[14] = target: anti-A2M antibody (MAB) labeled with a donor fluorophore; assay: TR-FRET competition against acceptor-labeled A2M in whole blood, singleplex calibrators, 30 min; A2M 1000 ug/mL (FIG. 2I)
[15] = target: anti-A2M antibody (MAB) labeled with a donor fluorophore; assay: TR-FRET competition against acceptor-labeled A2M in whole blood, singleplex calibrators, 30 min; A2M 2000 ug/mL (FIG. 2I)
[16] = target: anti-A2M antibody (MAB) labeled with a donor fluorophore; assay: TR-FRET competition against acceptor-labeled A2M in whole blood, singleplex calibrators, 30 min; A2M 4000 ug/mL (FIG. 2I)
[17] = target: anti-A2M antibody (MAB) labeled with a donor fluorophore; assay: TR-FRET competition against acceptor-labeled A2M in whole blood, multiplex calibrators, 5 min; A2M 0 ug/mL, reference (FIG. 2I)
[18] = target: anti-A2M antibody (MAB) labeled with a donor fluorophore; assay: TR-FRET competition against acceptor-labeled A2M in whole blood, multiplex calibrators, 30 min; A2M 0 ug/mL, reference (FIG. 2I)
[19] = target: anti-A2M antibody (MAB) labeled with a donor fluorophore; assay: TR-FRET competition against acceptor-labeled A2M in whole blood, singleplex calibrators, 5 min; A2M 0 ug/mL, reference (FIG. 2I)
[20] = target: anti-A2M antibody (MAB) labeled with a donor fluorophore; assay: TR-FRET competition against acceptor-labeled A2M in whole blood, singleplex calibrators, 30 min; A2M 0 ug/mL, reference (FIG. 2I)
[21] = target: anti-A2M antibody (MAB) labeled with a donor fluorophore; assay: TR-FRET competition against acceptor-labeled A2M in whole blood, multiplex calibrators (VCAM-1 + A2M), 5 min; A2M 200 ug/mL (FIG. 2I)
[22] = target: anti-A2M antibody (MAB) labeled with a donor fluorophore; assay: TR-FRET competition against acceptor-labeled A2M in whole blood, multiplex calibrators (VCAM-1 + A2M), 5 min; A2M 500 ug/mL (FIG. 2I)
[23] = target: anti-A2M antibody (MAB) labeled with a donor fluorophore; assay: TR-FRET competition against acceptor-labeled A2M in whole blood, multiplex calibrators (VCAM-1 + A2M), 30 min; A2M 200 ug/mL (FIG. 2I)
[24] = target: anti-A2M antibody (MAB) labeled with a donor fluorophore; assay: TR-FRET competition against acceptor-labeled A2M in whole blood, multiplex calibrators (VCAM-1 + A2M), 30 min; A2M 500 ug/mL (FIG. 2I)
[25] = target: anti-A2M antibody (MAB) labeled with a donor fluorophore; assay: TR-FRET competition against acceptor-labeled A2M in whole blood, multiplex calibrators (VCAM-1 + A2M), 5 min; A2M 1000 ug/mL (FIG. 2I)
[26] = target: anti-A2M antibody (MAB) labeled with a donor fluorophore; assay: TR-FRET competition against acceptor-labeled A2M in whole blood, multiplex calibrators (VCAM-1 + A2M), 5 min; A2M 2000 ug/mL (FIG. 2I)
[27] = target: anti-A2M antibody (MAB) labeled with a donor fluorophore; assay: TR-FRET competition against acceptor-labeled A2M in whole blood, multiplex calibrators (VCAM-1 + A2M), 5 min; A2M 4000 ug/mL (FIG. 2I)
[28] = target: anti-A2M antibody (MAB) labeled with a donor fluorophore; assay: TR-FRET competition against acceptor-labeled A2M in whole blood, multiplex calibrators (VCAM-1 + A2M), 30 min; A2M 1000 ug/mL (FIG. 2I)
[29] = target: anti-A2M antibody (MAB) labeled with a donor fluorophore; assay: TR-FRET competition against acceptor-labeled A2M in whole blood, multiplex calibrators (VCAM-1 + A2M), 30 min; A2M 2000 ug/mL (FIG. 2I)
[30] = target: anti-A2M antibody (MAB) labeled with a donor fluorophore; assay: TR-FRET competition against acceptor-labeled A2M in whole blood, multiplex calibrators (VCAM-1 + A2M), 30 min; A2M 4000 ug/mL (FIG. 2I)

## A2M (alpha-2-macroglobulin), unlabeled analyte / calibrator
[1]
  F/B Mean: 0.905
[2]
  F/B Mean: 0.795
[3]
  F/B Mean: 0.666
[4]
  F/B Mean: 0.532
[5]
  F/B Mean: 0.393
[6]
  F/B Mean: 1
[7]
  FRET signal relative to zero calibrator (quantity not given): 0.88
[8]
  FRET signal relative to zero calibrator (quantity not given): 0.72
[9]
  FRET signal relative to zero calibrator (quantity not given): 0.88
[10]
  FRET signal relative to zero calibrator (quantity not given): 0.71
[11]
  FRET signal relative to zero calibrator (quantity not given): 0.58
[12]
  FRET signal relative to zero calibrator (quantity not given): 0.43
[13]
  FRET signal relative to zero calibrator (quantity not given): 0.33
[14]
  FRET signal relative to zero calibrator (quantity not given): 0.59
[15]
  FRET signal relative to zero calibrator (quantity not given): 0.43
[16]
  FRET signal relative to zero calibrator (quantity not given): 0.33
[17]
  FRET signal relative to zero calibrator (quantity not given): 1
[18]
  FRET signal relative to zero calibrator (quantity not given): 1
[19]
  FRET signal relative to zero calibrator (quantity not given): 1
[20]
  FRET signal relative to zero calibrator (quantity not given): 1
[21]
  FRET signal relative to zero calibrator (quantity not given): 0.83
[22]
  FRET signal relative to zero calibrator (quantity not given): 0.71
[23]
  FRET signal relative to zero calibrator (quantity not given): 0.87
[24]
  FRET signal relative to zero calibrator (quantity not given): 0.74
[25]
  FRET signal relative to zero calibrator (quantity not given): 0.58
[26]
  FRET signal relative to zero calibrator (quantity not given): 0.45
[27]
  FRET signal relative to zero calibrator (quantity not given): 0.34
[28]
  FRET signal relative to zero calibrator (quantity not given): 0.56
[29]
  FRET signal relative to zero calibrator (quantity not given): 0.45
[30]
  FRET signal relative to zero calibrator (quantity not given): 0.33

Reference: patent EP3821250B1
